The values below come from patent publication US20190002841A1.

In assay [1] the target is AAV9-SPAKFA capsid (AAV9 with NKDKLN replaced by SPAKFA) (Adeno-associated virus 9). Briefly: AVB Sepharose HiTrap column, clarified supernatant, wild type against SPAKFA mutant.
Assay [2] deals with AAVrh64R1 capsid (vectors AAV2/rh.64R1.CMV.PI.EGFP.WPRE.bGH and rh.64R1 with CB7.CI.ffluciferase.RBG) (Adeno-associated virus rh.64R1). The description is as above.
Assay [3] concerns the target AAV9 capsid (vector with CB7.CI.ffluciferase.RBG) (Adeno-associated virus 9). Described as above.
Assay [4] addresses AAV8-SPAKFA capsid (AAV8 with NQSKLN replaced by SPAKFA) (Adeno-associated virus 8). The assay is described as above.
Assay [5] addresses rh.64R1-SPAKFA capsid (rh.64R1 with NQAKLN replaced by SPAKFA) (Adeno-associated virus rh.64R1). The assay is described as above.
Assay [6] has as its target AAV8 capsid (vectors AAV2/8.CMV.ffluciferase.SV40 and AAV8 with CB7.CI.ffluciferase.RBG) (Adeno-associated virus 8). The description is as above.
In assay [7] the target is AAV3B-NKDKLN capsid (AAV3B with SPAKFA replaced by NKDKLN of AAV9) (Adeno-associated virus 3B). The assay is described as follows: AVB Sepharose HiTrap column, unbound share in flow-through.
For assay [8], the target named is AAV3B capsid (vector AAV2/3B.CB7.CI.ffluciferase.RBG) (Adeno-associated virus 3B). Described as above.
Assay [9] shares this target. Briefly: AVB Sepharose HiTrap column, qPCR of fractions; clarified AAV3B product. Background: Real-time PCR tracks product formation cycle by cycle.
The target in assay [10] is AAVrh64R1 capsid (vectors AAV2/rh.64R1.CMV.PI.EGFP.WPRE.bGH and rh.64R1 with CB7.CI.ffluciferase.RBG) (Adeno-associated virus rh.64R1). The assay is described as follows: AVB Sepharose HiTrap column, qPCR of fractions; mix rh.64R1+rh.10.
Assay [11] has as its target AAV3B-NKDKLN capsid (AAV3B with SPAKFA replaced by NKDKLN of AAV9) (Adeno-associated virus 3B). The assay is described as follows: AVB Sepharose HiTrap column, share washed off in wash 1.
Assay [12] has as its target AAV3B capsid (vector AAV2/3B.CB7.CI.ffluciferase.RBG) (Adeno-associated virus 3B). The assay is described as above.
Assay [13] has as its target AAV3B-NKDKLN capsid (AAV3B with SPAKFA replaced by NKDKLN of AAV9) (Adeno-associated virus 3B). Briefly: AVB Sepharose HiTrap column, AAV3B against AAV3B-NKDKLN.
Assay [14] has as its target AAV3B capsid (vector AAV2/3B.CB7.CI.ffluciferase.RBG) (Adeno-associated virus 3B). The assay is described as above.
The target of assay [15] is AAV3B-NKDKLN capsid (AAV3B with SPAKFA replaced by NKDKLN of AAV9) (Adeno-associated virus 3B). The assay is described as follows: AVB Sepharose HiTrap column, share washed off in wash 2 (1 M NaCl).
Assay [16] addresses AAV3B capsid (vector AAV2/3B.CB7.CI.ffluciferase.RBG) (Adeno-associated virus 3B). Described as above.
In assay [17] the target is AAVrh10 capsid (vector AAV2/rh.10.CMV.PI.Cre.RBG) (Adeno-associated virus rh.10). Briefly: AVB Sepharose HiTrap column, qPCR of fractions; average of two runs.
Assay [18] deals with AAVhu37 capsid (vector AAV2/hu.37.TBG.EGFP.bGH) (Adeno-associated virus hu.37). The assay is described as follows: AVB Sepharose HiTrap column, qPCR of fractions; mix AAV8+hu.37+rh.10.
Assay [19] addresses AAV8 capsid (vectors AAV2/8.CMV.ffluciferase.SV40 and AAV8 with CB7.CI.ffluciferase.RBG) (Adeno-associated virus 8). Described as above.

For “AVB Sepharose High Performance affinity resin ligand (14 kD fragment from a single chain llama antibody expressed in yeast) (VHH)”, the % recovery of loaded vector in the elution fraction (of total fractions) in assay [1] is 51%; in [2] it was 18%; in [3] it was 0.6%; in [4], 93%; in assay [5], 91%; in assay [6], 30%. In addition, the % of vector in the flow-through (FT) fraction amounted to 8.2% in assay [7] and 1.3% in [8]. The substance also displayed a % of vector genomes recovered in the elution fraction in assay [9] of 98%. The % of loaded vector genome in the elution fraction in [10] worked out at 22%; in assay [17], 84%; in assay [18], 82%; in [19], 20%. Besides, the % of vector in the wash 1 (W1) fraction is 0.1% in assay [11] and 0% in assay [12]. For the same substance, the elution fraction yield (%) in [13] stood at 87%; in assay [14], 98%. The % of vector in the wash 2 (W2) fraction in assay [15] was 4.6%; in assay [16], 0.3%.
